# T1: RHPN1, Q8TCX5
# T1 sequence (Q8TCX5 508-602, limits assumed, looked up): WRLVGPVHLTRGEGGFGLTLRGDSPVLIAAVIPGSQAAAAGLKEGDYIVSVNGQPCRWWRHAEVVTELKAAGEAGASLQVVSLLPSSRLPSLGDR
# T2: LNX2_3, Q8N448
# T2 sequence (Q8N448 463-564, limits assumed, looked up): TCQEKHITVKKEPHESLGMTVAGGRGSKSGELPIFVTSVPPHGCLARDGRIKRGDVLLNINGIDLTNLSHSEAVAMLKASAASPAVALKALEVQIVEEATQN
# T3: HTRA3, P83110
# T3 sequence (P83110 354-453, limits assumed, looked up): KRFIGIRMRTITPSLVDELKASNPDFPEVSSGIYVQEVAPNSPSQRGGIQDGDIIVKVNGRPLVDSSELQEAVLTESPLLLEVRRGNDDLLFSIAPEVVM
# T4: LRRC7, Q96NW7
# T4 sequence (Q96NW7 1440-1537, limits assumed, looked up): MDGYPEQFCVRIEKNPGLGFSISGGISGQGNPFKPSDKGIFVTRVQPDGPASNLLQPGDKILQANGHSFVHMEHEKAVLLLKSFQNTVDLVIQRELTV
# T5: MPDZ_12, O75970
# T5 sequence (O75970 1857-1958, limits assumed, looked up): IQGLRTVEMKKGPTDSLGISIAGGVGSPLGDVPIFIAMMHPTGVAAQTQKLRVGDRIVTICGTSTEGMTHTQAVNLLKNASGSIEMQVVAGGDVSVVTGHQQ
# T6: DVL3, Q92997
# T6 sequence (Q92997 244-331, limits assumed, looked up): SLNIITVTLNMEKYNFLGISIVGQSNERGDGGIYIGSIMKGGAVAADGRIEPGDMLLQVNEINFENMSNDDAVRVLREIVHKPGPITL
# T7: GRIP1_3, Q9Y3R0
# T7 sequence (Q9Y3R0 247-346, limits assumed, looked up): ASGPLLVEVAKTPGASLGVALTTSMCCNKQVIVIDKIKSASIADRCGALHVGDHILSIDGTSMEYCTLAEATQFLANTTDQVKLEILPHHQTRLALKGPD
# T8: ARHGEF11, O15085
# T8 sequence (O15085 42-136, limits assumed, looked up): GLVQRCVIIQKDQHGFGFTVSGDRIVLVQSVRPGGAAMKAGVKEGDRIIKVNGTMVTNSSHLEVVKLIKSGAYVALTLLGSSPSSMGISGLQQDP
# T9: CARD11, Q9BXL7
# T9 sequence (Q9BXL7 662-765, limits assumed, looked up): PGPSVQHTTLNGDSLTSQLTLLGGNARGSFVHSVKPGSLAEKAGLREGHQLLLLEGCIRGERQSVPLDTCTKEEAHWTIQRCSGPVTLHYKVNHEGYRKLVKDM
# T10: GRIP1_7, Q9Y3R0
# T10 sequence (Q9Y3R0 999-1096, limits assumed, looked up): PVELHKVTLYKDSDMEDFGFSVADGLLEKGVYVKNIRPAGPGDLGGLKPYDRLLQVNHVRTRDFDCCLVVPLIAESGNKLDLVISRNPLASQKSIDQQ
# Molecular target: GRIP2_5, Q9C0E4
# Sequence (Q9C0E4 544-642): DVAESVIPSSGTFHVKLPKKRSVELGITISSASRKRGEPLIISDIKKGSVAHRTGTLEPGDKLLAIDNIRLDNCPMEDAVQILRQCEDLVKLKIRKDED
# Assay: holdup assay
# Parameters: key: below the threshold = too weak to quantify, mostly under pKd 3.1 to 4
# Details: plain residues with an end cap or a label only (N-terminal biotin on a linker: ado-ado)
row,Binder,pKd
1,"YPKQMPLSQV [FZD8, Q9H461]",below the threshold
2,"LGHTPFVDEL [UQCRC2, P22695]",below the threshold

# Molecular target: T1, RHPN1, Q8TCX5
# Assay: holdup assay
# Parameters: key: below the threshold = too weak to quantify, mostly under pKd 3.1 to 4
# Details: plain residues with an end cap or a label only (N-terminal biotin on a linker: ado-ado)
row,Binder,pKd
1,"YPKQMPLSQV [FZD8, Q9H461]",4.34
2,"LGHTPFVDEL [UQCRC2, P22695]",below the threshold

# Molecular target: T2, LNX2_3, Q8N448
# Assay: holdup assay
# Parameters: key: below the threshold = too weak to quantify, mostly under pKd 3.1 to 4
# Details: plain residues with an end cap or a label only (N-terminal biotin on a linker: ado-ado)
row,Binder,pKd
1,"YPKQMPLSQV [FZD8, Q9H461]",below the threshold
2,"LGHTPFVDEL [UQCRC2, P22695]",below the threshold

# Molecular target: IL16_1, Q14005
# Sequence (Q14005 210-306): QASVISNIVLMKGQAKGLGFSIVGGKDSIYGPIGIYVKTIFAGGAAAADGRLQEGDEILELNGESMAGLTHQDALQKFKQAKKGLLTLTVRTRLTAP
# Assay: holdup assay
# Parameters: key: below the threshold = too weak to quantify, mostly under pKd 3.1 to 4
# Details: plain residues with an end cap or a label only (N-terminal biotin on a linker: ado-ado)
row,Binder,pKd
1,"YPKQMPLSQV [FZD8, Q9H461]",below the threshold
2,"LGHTPFVDEL [UQCRC2, P22695]",3.49

# Molecular target: T3, HTRA3, P83110
# Assay: holdup assay
# Parameters: key: below the threshold = too weak to quantify, mostly under pKd 3.1 to 4
# Details: plain residues with an end cap or a label only (N-terminal biotin on a linker: ado-ado)
row,Binder,pKd
1,"YPKQMPLSQV [FZD8, Q9H461]",below the threshold
2,"LGHTPFVDEL [UQCRC2, P22695]",below the threshold

# Molecular target: TJP1_2, Q07157
# Sequence (Q07157 181-274): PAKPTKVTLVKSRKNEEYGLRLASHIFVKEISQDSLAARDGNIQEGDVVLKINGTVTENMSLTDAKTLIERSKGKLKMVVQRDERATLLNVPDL
# Assay: holdup assay
# Parameters: key: below the threshold = too weak to quantify, mostly under pKd 3.1 to 4
# Details: plain residues with an end cap or a label only (N-terminal biotin on a linker: ado-ado)
row,Binder,pKd
1,"YPKQMPLSQV [FZD8, Q9H461]",below the threshold
2,"LGHTPFVDEL [UQCRC2, P22695]",below the threshold

# Molecular target: LDB3, O75112
# Sequence (O75112 1-94): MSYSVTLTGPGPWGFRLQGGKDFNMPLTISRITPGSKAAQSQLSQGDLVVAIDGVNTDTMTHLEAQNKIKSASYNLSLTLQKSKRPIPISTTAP
# Assay: holdup assay
# Parameters: key: below the threshold = too weak to quantify, mostly under pKd 3.1 to 4
# Details: plain residues with an end cap or a label only (N-terminal biotin on a linker: ado-ado)
row,Binder,pKd
1,"YPKQMPLSQV [FZD8, Q9H461]",below the threshold
2,"LGHTPFVDEL [UQCRC2, P22695]",below the threshold

# Molecular target: TJP1_3, Q07157
# Sequence (Q07157 416-512): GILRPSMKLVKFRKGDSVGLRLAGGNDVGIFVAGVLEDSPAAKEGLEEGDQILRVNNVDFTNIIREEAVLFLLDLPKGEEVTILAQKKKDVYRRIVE
# Assay: holdup assay
# Parameters: key: below the threshold = too weak to quantify, mostly under pKd 3.1 to 4
# Details: plain residues with an end cap or a label only (N-terminal biotin on a linker: ado-ado)
row,Binder,pKd
1,"YPKQMPLSQV [FZD8, Q9H461]",below the threshold
2,"LGHTPFVDEL [UQCRC2, P22695]",below the threshold

# Molecular target: T4, LRRC7, Q96NW7
# Assay: holdup assay
# Parameters: key: below the threshold = too weak to quantify, mostly under pKd 3.1 to 4
# Details: plain residues with an end cap or a label only (N-terminal biotin on a linker: ado-ado)
row,Binder,pKd
1,"YPKQMPLSQV [FZD8, Q9H461]",below the threshold
2,"LGHTPFVDEL [UQCRC2, P22695]",below the threshold

# Molecular target: MAGI2_3, Q86UL8
# Sequence (Q86UL8 600-682): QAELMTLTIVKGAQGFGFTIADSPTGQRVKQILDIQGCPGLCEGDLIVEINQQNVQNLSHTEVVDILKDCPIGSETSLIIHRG
# Assay: holdup assay
# Parameters: key: below the threshold = too weak to quantify, mostly under pKd 3.1 to 4
# Details: plain residues with an end cap or a label only (N-terminal biotin on a linker: ado-ado)
row,Binder,pKd
1,"YPKQMPLSQV [FZD8, Q9H461]",below the threshold
2,"LGHTPFVDEL [UQCRC2, P22695]",below the threshold

# Molecular target: DLG5_1, Q8TDM6
# Sequence (Q8TDM6 617-713): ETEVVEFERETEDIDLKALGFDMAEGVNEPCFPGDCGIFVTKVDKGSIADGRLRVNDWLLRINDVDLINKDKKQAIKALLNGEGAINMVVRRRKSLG
# Assay: holdup assay
# Parameters: key: below the threshold = too weak to quantify, mostly under pKd 3.1 to 4
# Details: plain residues with an end cap or a label only (N-terminal biotin on a linker: ado-ado)
row,Binder,pKd
1,"YPKQMPLSQV [FZD8, Q9H461]",below the threshold
2,"LGHTPFVDEL [UQCRC2, P22695]",below the threshold

# Molecular target: LNX1_1, Q8TBB1
# Sequence (Q8TBB1 261-371): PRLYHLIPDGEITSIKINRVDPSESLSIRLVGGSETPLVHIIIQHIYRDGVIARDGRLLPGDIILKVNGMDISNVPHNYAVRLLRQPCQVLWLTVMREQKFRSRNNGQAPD
# Assay: holdup assay
# Parameters: key: below the threshold = too weak to quantify, mostly under pKd 3.1 to 4
# Details: plain residues with an end cap or a label only (N-terminal biotin on a linker: ado-ado)
row,Binder,pKd
1,"YPKQMPLSQV [FZD8, Q9H461]",3.74
2,"LGHTPFVDEL [UQCRC2, P22695]",below the threshold

# Molecular target: T5, MPDZ_12, O75970
# Assay: holdup assay
# Parameters: key: below the threshold = too weak to quantify, mostly under pKd 3.1 to 4
# Details: plain residues with an end cap or a label only (N-terminal biotin on a linker: ado-ado)
row,Binder,pKd
1,"YPKQMPLSQV [FZD8, Q9H461]",below the threshold
2,"LGHTPFVDEL [UQCRC2, P22695]",below the threshold

# Molecular target: T6, DVL3, Q92997
# Assay: holdup assay
# Parameters: key: below the threshold = too weak to quantify, mostly under pKd 3.1 to 4
# Details: plain residues with an end cap or a label only (N-terminal biotin on a linker: ado-ado)
row,Binder,pKd
1,"YPKQMPLSQV [FZD8, Q9H461]",below the threshold
2,"LGHTPFVDEL [UQCRC2, P22695]",below the threshold

# Molecular target: LNX1_3, Q8TBB1
# Sequence (Q8TBB1 500-596): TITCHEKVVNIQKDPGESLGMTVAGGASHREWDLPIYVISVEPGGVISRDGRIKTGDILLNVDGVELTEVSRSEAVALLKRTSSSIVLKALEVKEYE
# Assay: holdup assay
# Parameters: key: below the threshold = too weak to quantify, mostly under pKd 3.1 to 4
# Details: plain residues with an end cap or a label only (N-terminal biotin on a linker: ado-ado)
row,Binder,pKd
1,"YPKQMPLSQV [FZD8, Q9H461]",below the threshold
2,"LGHTPFVDEL [UQCRC2, P22695]",below the threshold

# Molecular target: Inadl_10, Q8NI35
# Sequence (Q8NI35 1673-1763): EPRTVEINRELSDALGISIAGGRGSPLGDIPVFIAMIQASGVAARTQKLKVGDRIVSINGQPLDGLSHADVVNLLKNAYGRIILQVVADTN
# Assay: holdup assay
# Parameters: key: below the threshold = too weak to quantify, mostly under pKd 3.1 to 4
# Details: plain residues with an end cap or a label only (N-terminal biotin on a linker: ado-ado)
row,Binder,pKd
1,"YPKQMPLSQV [FZD8, Q9H461]",below the threshold
2,"LGHTPFVDEL [UQCRC2, P22695]",below the threshold

# Molecular target: T7, GRIP1_3, Q9Y3R0
# Assay: holdup assay
# Parameters: key: below the threshold = too weak to quantify, mostly under pKd 3.1 to 4
# Details: plain residues with an end cap or a label only (N-terminal biotin on a linker: ado-ado)
row,Binder,pKd
1,"YPKQMPLSQV [FZD8, Q9H461]",below the threshold
2,"LGHTPFVDEL [UQCRC2, P22695]",below the threshold

# Molecular target: NHERF4_4, Q86UT5
# Sequence (Q86UT5 464-550): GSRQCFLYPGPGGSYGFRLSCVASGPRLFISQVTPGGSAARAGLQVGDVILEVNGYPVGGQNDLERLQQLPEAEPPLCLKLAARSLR
# Assay: holdup assay
# Parameters: key: below the threshold = too weak to quantify, mostly under pKd 3.1 to 4
# Details: plain residues with an end cap or a label only (N-terminal biotin on a linker: ado-ado)
row,Binder,pKd
1,"YPKQMPLSQV [FZD8, Q9H461]",below the threshold
2,"LGHTPFVDEL [UQCRC2, P22695]",below the threshold

# Molecular target: GRASP, Q7Z6J2
# Sequence (Q7Z6J2 96-193): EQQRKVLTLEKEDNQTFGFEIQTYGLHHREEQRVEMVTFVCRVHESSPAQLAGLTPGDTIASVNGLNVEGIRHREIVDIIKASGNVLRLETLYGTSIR
# Assay: holdup assay
# Parameters: key: below the threshold = too weak to quantify, mostly under pKd 3.1 to 4
# Details: plain residues with an end cap or a label only (N-terminal biotin on a linker: ado-ado)
row,Binder,pKd
1,"YPKQMPLSQV [FZD8, Q9H461]",below the threshold
2,"LGHTPFVDEL [UQCRC2, P22695]",3.85

# Molecular target: SCRIB_1, Q14160
# Sequence (Q14160 718-814): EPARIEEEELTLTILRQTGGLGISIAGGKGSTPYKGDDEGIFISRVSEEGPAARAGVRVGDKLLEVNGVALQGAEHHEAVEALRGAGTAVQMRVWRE
# Assay: holdup assay
# Parameters: key: below the threshold = too weak to quantify, mostly under pKd 3.1 to 4
# Details: plain residues with an end cap or a label only (N-terminal biotin on a linker: ado-ado)
row,Binder,pKd
1,"YPKQMPLSQV [FZD8, Q9H461]",below the threshold
2,"LGHTPFVDEL [UQCRC2, P22695]",below the threshold

# Molecular target: NHERF4_1, Q86UT5-2
# Sequence (Q86UT5 other isoform, or with tags, fused parts or gaps): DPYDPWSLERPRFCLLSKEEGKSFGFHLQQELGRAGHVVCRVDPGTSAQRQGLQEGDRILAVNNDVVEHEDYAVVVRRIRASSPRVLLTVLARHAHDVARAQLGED
# Assay: holdup assay
# Parameters: key: below the threshold = too weak to quantify, mostly under pKd 3.1 to 4
# Details: plain residues with an end cap or a label only (N-terminal biotin on a linker: ado-ado)
row,Binder,pKd
1,"YPKQMPLSQV [FZD8, Q9H461]",below the threshold
2,"LGHTPFVDEL [UQCRC2, P22695]",4.2

# Molecular target: T8, ARHGEF11, O15085
# Assay: holdup assay
# Parameters: key: below the threshold = too weak to quantify, mostly under pKd 3.1 to 4
# Details: plain residues with an end cap or a label only (N-terminal biotin on a linker: ado-ado)
row,Binder,pKd
1,"YPKQMPLSQV [FZD8, Q9H461]",3.89
2,"LGHTPFVDEL [UQCRC2, P22695]",3.79

# Molecular target: T9, CARD11, Q9BXL7
# Assay: holdup assay
# Parameters: key: below the threshold = too weak to quantify, mostly under pKd 3.1 to 4
# Details: plain residues with an end cap or a label only (N-terminal biotin on a linker: ado-ado)
row,Binder,pKd
1,"YPKQMPLSQV [FZD8, Q9H461]",below the threshold
2,"LGHTPFVDEL [UQCRC2, P22695]",3.53

# Molecular target: MAGI1_2, Q96QZ7
# Sequence (Q96QZ7 456-580): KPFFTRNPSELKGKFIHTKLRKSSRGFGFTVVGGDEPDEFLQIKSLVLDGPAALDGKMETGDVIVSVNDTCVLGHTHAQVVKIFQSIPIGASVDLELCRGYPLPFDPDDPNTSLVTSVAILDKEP
# Assay: holdup assay
# Parameters: key: below the threshold = too weak to quantify, mostly under pKd 3.1 to 4
# Details: plain residues with an end cap or a label only (N-terminal biotin on a linker: ado-ado)
row,Binder,pKd
1,"YPKQMPLSQV [FZD8, Q9H461]",3.55
2,"LGHTPFVDEL [UQCRC2, P22695]",below the threshold

# Molecular target: NHERF4_2, Q86UT5
# Sequence (Q86UT5 220-308): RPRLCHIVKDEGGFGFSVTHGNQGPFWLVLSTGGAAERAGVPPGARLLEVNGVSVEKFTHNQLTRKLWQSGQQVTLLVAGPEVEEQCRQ
# Assay: holdup assay
# Parameters: key: below the threshold = too weak to quantify, mostly under pKd 3.1 to 4
# Details: plain residues with an end cap or a label only (N-terminal biotin on a linker: ado-ado)
row,Binder,pKd
1,"YPKQMPLSQV [FZD8, Q9H461]",below the threshold
2,"LGHTPFVDEL [UQCRC2, P22695]",below the threshold

# Molecular target: PDZRN4_1, Q6ZMN7
# Sequence (Q6ZMN7 213-318): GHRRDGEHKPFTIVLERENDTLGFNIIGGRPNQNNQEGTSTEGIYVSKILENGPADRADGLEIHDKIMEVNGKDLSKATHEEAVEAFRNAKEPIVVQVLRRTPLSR
# Assay: holdup assay
# Parameters: key: below the threshold = too weak to quantify, mostly under pKd 3.1 to 4
# Details: plain residues with an end cap or a label only (N-terminal biotin on a linker: ado-ado)
row,Binder,pKd
1,"YPKQMPLSQV [FZD8, Q9H461]",below the threshold
2,"LGHTPFVDEL [UQCRC2, P22695]",below the threshold

# Molecular target: GIPC2, Q8TF65
# Sequence (Q8TF65 112-203): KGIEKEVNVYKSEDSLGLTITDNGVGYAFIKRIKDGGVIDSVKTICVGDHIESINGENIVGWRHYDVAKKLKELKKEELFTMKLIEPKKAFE
# Assay: holdup assay
# Parameters: key: below the threshold = too weak to quantify, mostly under pKd 3.1 to 4
# Details: plain residues with an end cap or a label only (N-terminal biotin on a linker: ado-ado)
row,Binder,pKd
1,"YPKQMPLSQV [FZD8, Q9H461]",below the threshold
2,"LGHTPFVDEL [UQCRC2, P22695]",below the threshold

# Molecular target: T10, GRIP1_7, Q9Y3R0
# Assay: holdup assay
# Parameters: key: below the threshold = too weak to quantify, mostly under pKd 3.1 to 4
# Details: plain residues with an end cap or a label only (N-terminal biotin on a linker: ado-ado)
row,Binder,pKd
1,"YPKQMPLSQV [FZD8, Q9H461]",below the threshold
2,"LGHTPFVDEL [UQCRC2, P22695]",below the threshold

# From paper PMC9482650, “Quantitative fragmentomics allow affinity mapping of interactomes” (Nature Communications, 2022)
